The nature of the series: yeast display, Sf9 membrane polyspecificity reagent, FACS + sequencing; frameworks hold sequencing errors. In outline:
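A nanobody's polyreactivity label depends on the gate it was sorted from. Yeast display cells were stained with 10% biotinylated, detergent-solubilized Sf9 membrane reagent for 1 hour at 4 °C, enriched on streptavidin microbeads and sorted by FACS. The low and high (top ~1%) gates were set on anti-HA fluorescence for expression and streptavidin fluorescence for reagent binding.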
Turning to “QVQLVESGGGLVQAGGSLRLSSAASGSTFTAYAMGWYRQAPGTERELVAAISRSRGRTYYADSVKGRFTISRDNAKYTVYLEMISLKPEDTAVLYCNARGGSDGDYWGQGTQVTVSS”, the “polyreactivity (PSR sort gate)” value was “high polyreactivity”.

As to “QVQLVESGGGLVQAGGSLRLSCAASGSIFSQYAMGWYRQAPGKERELVAAISRSGGTTYYADSVKGRFTISRDNAKNTVYLQMNSLKPEDTAVYYCAADLKARRGSYDRFYYWGQGTQVTVSS”, the “polyreactivity (PSR sort gate)” value is reported as “high polyreactivity”.

In the case of “QVQLVESGGGLVQAGGSLRLSCAASGNNLCRNAMGWYRQAPGKERELVATISSVGTYYADSVKGRFTISRDNAKNNVYVQMNSLKPEDTAVYSCNARGRRSGYISGYDYWGQGTQVTVSS”, the “polyreactivity (PSR sort gate)” value is reported as “high polyreactivity”.

Regarding “QVQLVESGGGLVQAGGSLRLSCAASGFIFDYYGMGWYRQAPGKERELVAAITRGGSTYYADSVKGRFTISRDNAKNTVYLQMNSLKPEDTAFYYCAAKYVSQGYDYWGQGTQVTVSS”, the “polyreactivity (PSR sort gate)” value is recorded as “high polyreactivity”.

Regarding “QVQLVESGGGLVQAGGSLSLSCAASGTFSPYAMGWYRQAPGKERELVADITSNTGRTYAASVKGRFTISRDNAKNTVYLQMNSLKPEDTAVYYCNTYGSGTHSTGYDYWGQGTQVTVSS”, the “polyreactivity (PSR sort gate)” value was “low polyreactivity”.

Turning to “QVQHVESGGGLVQAGGSLRLSCAASGSTFYGNTMGCYRQAPGKERELVAAISIRGTRTYYADSVKGRFTISRDNAKNTVYLQMNSLKPEDTAVYYCNAVTFPHNYDYWGQGTQVTVSS”, the “polyreactivity (PSR sort gate)” value was “high polyreactivity”.

As for “QVQLVESGGGLVQAGGSLRLSCAASGLIFRGNAMGWYRQAPGKERELVAGITRGGSTYYADSVKGRFTISRDNAKNTVYLQMNSLKPEDTAVYYCAAAFRDGFTRRYGYWGQGTQVTVSS”, the “polyreactivity (PSR sort gate)” value was “high polyreactivity”.

“QGQLVESGGGLVQAGGSLRLSCAASGRTFYANAMGWYRQAPGKERELVAAISTGGDGTYYADSVKGRFTISRDNAKNTVYLQMNSLKPEDAAVYYCAVRHRASGILYDYWGQGTQVTVSS”: the “polyreactivity (PSR sort gate)” value was “low polyreactivity”.

Regarding “QVQLVESGGGLVQAGGSLRLSCAASGRTFSHYAMGWSRQAPGKERELVAASNTRTGTTYYADSVKGRFTISRDNAKNTVNLQMNSLKPEDTAVYYCNAVPYYSYQGWILVGDYDYWGQGTQVTVSS”, the “polyreactivity (PSR sort gate)” value is “low polyreactivity”.

Take “QVQLVESGGGLVQAGGSLRLSCAASGITFYRYFMGWYRPAPGKERELVAAISRGGGSTYYADSVKGRFTISRDNAKNTVYLQMNSLKPEDTAVYYCNARYLYRHDYWGQGTQVTVSS”: the “polyreactivity (PSR sort gate)” value is reported as “high polyreactivity”.

For “QVQLVESGGGLVQAGGSLRLTCAASGLIFAENAMGWYRQAPGKERELVASITKSGGRTYYADSVKGRFTISRDNAKNTVYLQMNSLKPEDTAVYDCAAISYFPLRTRYERWFYYWGQGTQVTVSS”, the “polyreactivity (PSR sort gate)” value is listed as “high polyreactivity”.

As for “QVQLVESGGGLGQAGGSLRLSCAASGFTFRYYAMGWSRQAPGKERELVAAITGSGGRTYYADSVKGRFTISRDNAKNTVYLQKNSLKPEDSAVYYCARDVDPRGRYYWGQGTQVTVSS”, the “polyreactivity (PSR sort gate)” value is reported as “high polyreactivity”.

As for “QVQLVESGGGLVQAGGSLRLSCAASGSIFACYAMGRYRQAPGKERELVATITWSGGSTYYADSVKGRFTISRDNAKNTVYLQMNSLKPEDTAVYYCAAEVVGIWYDLWYQGDYWGQGTQVTVSS”, the “polyreactivity (PSR sort gate)” value is “low polyreactivity”.

With “QVQLVESGGGLVQAGGSLRLSCAASGYTFPLYAMGWSRQAPGKEREFVAAISKRSGTTYYADSVKGRFTISRDNAKNTVYLQMNSLKPEDTAVYYCAASNGYQAVTYDYWGQGTQVTVSS”, the “polyreactivity (PSR sort gate)” value was “high polyreactivity”.

For “QVQLVESGGGLVQAGGSLRLSCAASGSTFGKYAMGWYRQAPGKERELVAAISKSGGSTYYADSVKGRFTISRDNAKNTVYLQMNSLKPEDTAVYYCNAYPHAYTGSTREGDYWGQGTQVTVSS”, the “polyreactivity (PSR sort gate)” value is on record as “high polyreactivity”.

As for “QVQLVESGGGLVQAGGSLRLSCAASGFIFSYNAMGWYRQAPGKERELVAAISSRGGSTYYADSVMGRFTISRDNAKNTVYLQMNSLKPEDTAVSYCAVASRRVYTAPSDYWGQGTQVTVSS”, the “polyreactivity (PSR sort gate)” value is given as “high polyreactivity”.

On to “QVQLVESGGGLVQAGGSLRLSCAASGSIFNLYAMGWYRQAPGKERELVAGIRWSGGRTYYADSVKGRFTISRDNAKYTVYLQMNSLKPEDTAVYYCAAEYRSWRYTGYSYYYWGQGTQVTVSS”, for which the “polyreactivity (PSR sort gate)” value is “high polyreactivity”.

Turning to “QVQLVESGGGLVQAGGSLRLSCAASGFIFAWYAMGWYRQAAGKERQLVATISSSGARTYYADSVKGRFTISRDNAKITVYLQMNSLKPEDTAVYYCAFGSVGRLKFYYWGQGTQVTVSS”, the “polyreactivity (PSR sort gate)” value is on record as “high polyreactivity”.

Take “QVQLVESGGGLVQAGGSLRISCAASGSTYYNAMGWYRQAPGKERELVAAFRFRSGSTYYADSVKGRFTISRDNAKNTVYLQMNSLKPEDTAVYYCAADYKRSWRYAYNYWGQGTQVTVSS”: the “polyreactivity (PSR sort gate)” value is “high polyreactivity”.

On to “QVQLVESGGGLVQAGGSLRLSCAASGSTFYPNAMGWYRQAPGKERELVAAITGGGSTTYADSVKGRFTISRDNAKNTVYLQMNSLKQEDTAVYYCNTDGPRYARPYDSWGQGTQVTVSS”, for which the “polyreactivity (PSR sort gate)” value is given as “low polyreactivity”.

With “QVQLVESGGGLVQAGGSLRLSCAASGGIFYSYAMGWYRQAPGKERELVAAITWIGGSTYYADSVKGRFTISRDNAKNTVYLQMNSLKPEDTAVYYCAAEILWGGYDYWGQGTQVTVSS”, the “polyreactivity (PSR sort gate)” value is reported as “low polyreactivity”.

In the case of “QVQLVESGGGLVQAGGSLRLSCAASGSIFVHNAMGWSRQAPGKERELVAAITRGGSTYYADSVKGRFTISRDNAKNTVYLQMNSLKPEDTAVYYCAALAAWRWDLYDYWGQGTQVTVSS”, the “polyreactivity (PSR sort gate)” value was “low polyreactivity”.

As to “QVQLVESGVGLVQAGGSLRLSCASSGRILTYYAMGWYRQAPGKERELVASISSNGGTYYADSVKGRFTISRDNAKNTVYLQMNSLKPEDTAVYYCNAKRVARYQYGASYNYWGQGTQVTVSS”, the “polyreactivity (PSR sort gate)” value is reported as “high polyreactivity”.

Regarding “QVQLVESGGGLVQAGGSLRLSCAASGITFRGYAMGWYRQAPGKERELVAAINSGGSTNYADAVKGRFTISRDNAKNTVYLQMNSLKPDDPAVYYCAADDYPYGNYYWGQGTQVTVSS”, the “polyreactivity (PSR sort gate)” value is “high polyreactivity”.

Turning to “QVQLVESGGGLVQAGGSLRLSCCATGSIFYSYVMGWYRQAPGKEREWFAAISRNGQSTYYADSVKGRFTISLDNAKNTVYLQMNSLKPDDTAVYYCAARSRDKYDYWGQGTQVTVSS”, the “polyreactivity (PSR sort gate)” value was “high polyreactivity”.

On to “QVQLVESGGGLVQAGASLRLSCAASGRTFAWYAMGWYRQAPGKERELVAAISSGGSTYYADSVKGRFTISRDNAKISVYLQMNSLKPEDTAVYDCAAEWHYIYAYDYWGQGTKVTVSS”, for which the “polyreactivity (PSR sort gate)” value is “low polyreactivity”.

On to “QVQLVESGGGLVQAGGSLRLSCAASGLTIDYYTMGWYRQAPGKERELVAAINWSGGRTYYADSVKGRFTISRDHAKNTVYLQMNSLKPEDTAVYYCAADTYRRHDDDYWGQGTQVTVSS”, for which the “polyreactivity (PSR sort gate)” value was “high polyreactivity”.

“QVQLVESGGGVVQAGGSLRLSCAASGFIFWVYALGWYRQAPGKASELVAAITGRGGRTYYVDAVKGRFTISRDNAKNTVYLQMNSLKPEDTAVYYCNTVPYPAYLARMVYWGQGTQVTVTS”: the “polyreactivity (PSR sort gate)” value is listed as “high polyreactivity”.

For “QVQVVESGGGLVQAGGSLRLSCAASGRIFGVNAMGWYRQAPGKERELVAVISSGGSTYYADSVKGRFTISRDNAKKTVYLQMNSLKPEDTAVYYCNAVVGRWFPYNLSDYWGQGTQVTVSS”, the “polyreactivity (PSR sort gate)” value is on record as “low polyreactivity”.

For “QVQLHESGGGLVHACGSLRPSCAASGSISDSWTMSWYRQAPGKEREFVAGITWGGTTNYADSVKRRFTISRDNAKNNVFLQMNSLKPEDTAVYYCAAVSYYGVDQYRITVYTYEYWGQGTQVTVSS”, the “polyreactivity (PSR sort gate)” value was “low polyreactivity”.

As to “QVQLVESGGGLVQAGGSLRLSCAATGSIINRYVMGWYRQAPGKEREFVAAIRNTGGSTYYADSVKGRFTISRDNAKNTVYLQMNSLKPEDPAVYYCAAVYRSAYDGLDHGYRRHDYWGQGTQVTVSS”, the “polyreactivity (PSR sort gate)” value is “high polyreactivity”.

For “QVQLVESGGGLVQARGSLRLSCAASGSTFTRYGMGWYRQAPGKERELVAAITTSGSSTYYADSVKGRFTISRDNAKNTVYLQMNSLKPEDTAVYYCAADWSSWGFDYWGQGTQVTLSS”, the “polyreactivity (PSR sort gate)” value is “low polyreactivity”.

Consider “QVQLVESGGGLVQAGGSLRLSCAASGRIIWGYAMGWYRQAPGKERELVAGITYSGGSTYYADSVKGRFTISRDNAKNTVYLQMNSLKPEDTAVYYCAAAKSYRSGSWYEYWGQGTQVTVSS”, for which the “polyreactivity (PSR sort gate)” value is recorded as “high polyreactivity”.

Consider “QVQLVESGGGLVQAGGSLRLSCAASGFIFSTYVMGWYRQAPGKERELVAAISASGGRTYYADSVKGRFTISRDTAKNTVYLQMNSLKPEDTAVFYCAAEITDTYRWALNYWGQGTQVTVSS”, for which the “polyreactivity (PSR sort gate)” value was “high polyreactivity”.

As to “QVQLVESGGGLVQAGGSLRLSCAASGSIFHRYAMGWYTQAPGKERELVAAISWSGGSTYYADSVKGRFTISRDNAKNTVYLQMNSLKPEDTAVYYCNRVAWNYGFGSSAYGYWGQGTQVTVSS”, the “polyreactivity (PSR sort gate)” value is “high polyreactivity”.

Take “QVQHVETGGGLVQAGCSLRLSCAASGRTFLWNAMGWYRQERGNERELGARINLSGGRTYYADSVKGRFTISRDNAKNSVYLQMNSLKPEETAVYYCAAPVVRYRRDSWGQGTQVTVSS”: the “polyreactivity (PSR sort gate)” value is “low polyreactivity”.

Consider “QVQLVESGGGLVQAGGSLRLSCAASGRIFGFYARGWYRQAPGKEREFVADITSGGSTNYADSVKGRFTISRDNAKNTVYLQMNSLKPEDTAVYYCNALSYVWYRYPGNWDEDDYWGQGTQVTVSS”, for which the “polyreactivity (PSR sort gate)” value is “low polyreactivity”.

On to “QVQLVESGGGLVQAGGSLRLSCAASGSIFWYYAMGWYRQAPGKERELVADITIRGGRTYYADSVKGRFTISRDNAKNTVYLQMNSLKPEDTAVYYCAADWEYWGFGLYDYWGQGTQVTVSS”, for which the “polyreactivity (PSR sort gate)” value is reported as “low polyreactivity”.

Turning to “QVQLVESGGGLVQAGGSLRLSCAASGSIFYYYAMGWYRQAPGKERELVAANDFGGGSTYYADSVKGRFTISRDNAKNTVYLQMNSLKPEDTAVYYCAARTFKDAGSAYGSWGQGTQVTVSS”, the “polyreactivity (PSR sort gate)” value was “high polyreactivity”.

With “QVQLVESGGGLVQAGGSLRLTCAASGSIFGGYGMGWYRQAPGKERELVAAITSGTSTYYADSVKGRFTISRDNAKNTVYLQMNSLKPEDTAVYYCAARPYPHSAYEGDYWGRGTQVTVSS”, the “polyreactivity (PSR sort gate)” value was “low polyreactivity”.

As for “QVQLVDSGGGLVQAGGSLRLSCAASGRIFDYNAMGWYRQAPGKERELVAVITGTGGTTYYADSVKGRFTISRDNAKNTVYLQMNSVKPEDTAVYYCNADDYRLTSLYIPERYDYWGQGTQLTVSS”, the “polyreactivity (PSR sort gate)” value was “low polyreactivity”.
